The term stoichiometry N denotes a count of units in the complex or per binding partner.

Data set [1] concerns the molecule itself. The data set is described as follows: SEC; Superdex S200 10/300 Gl, 20 mM Tris pH 8, 150 mM NaCl, 0.2 mM TCEP; monomer and dimer peaks pooled separately and each run a second time.
Data set [2] deals with the molecule itself. The data set is described as follows: cryo-EM structure; F-actin (0.7 uM) put on the grid first, then 0.6 mg/ml (21 uM) HMP1/α-catenin FABD added and removed repeatedly; helical reconstruction at 3.36 Å.

B1: full-length human α-catenin (residues 1-906) (natural protein, UniProt P35221 1-906, looked up)
chain: MTAVHAGNINFKWDPKSLEIRTLAVERLLEPLVTQVTTLVNTNSKGPSNKKRGRSKKAHVLAASVEQATENFLEKGDKIAKESQFLKEELVAAVEDVRKQGDLMKAAAGEFADDPCSSVKRGNMVRAARALLSAVTRLLILADMADVYKLLVQLKVVEDGILKLRNAGNEQDLGIQYKALKPEVDKLNIMAAKRQQELKDVGHRDQMAAARGILQKNVPILYTASQACLQHPDVAAYKANRDLIYKQLQQAVTGISNAAQATASDDASQHQGGGGGELAYALNNFDKQIIVDPLSFSEERFRPSLEERLESIISGAALMADSSCTRDDRRERIVAECNAVRQALQDLLSEYMGNAGRKERSDALNSAIDKMTKKTRDLRRQLRKAVMDHVSDSFLETNVPLLVLIEAAKNGNEKEVKEYAQVFREHANKLIEVANLACSISNNEEGVKLVRMSASQLEALCPQVINAALALAAKPQSKLAQENMDLFKEQWEKQVRVLTDAVDDITSIDDFLAVSENHILEDVNKCVIALQEKDVDGLDRTAGAIRGRAARVIHVVTSEMDNYEPGVYTEKVLEATKLLSNTVMPRFTEQVEAAVEALSSDPAQPMDENEFIDASRLVYDGIRDIRKAVLMIRTPEELDDSDFETEDFDVRSRTSVQTEDDQLIAGQSARAIMAQLPQEQKAKIAEQVASFQEEKSKLDAEVSKWDDSGNDIIVLAKQMCMIMMEMTDFTRGKGPLKNTSDVISAAKKIAEAGSRMDKLGRTIADHCPDSACKQDLLAYLQRIALYCHQLNICSKVKAEVQNLGGELVVSGVDSAMSLIQAAKNLMNAVVQTVKASYVASTKYQKSQGMASLNLPAVSWKMKAPEKKPLVKREKQDETQTKIKRASQKKHVNPVQALSEFKAMDSI
notes: cDNA from Open Biosystems; One construct that was isolated as a monomer pool and as a dimer pool; the dimer pool holds two copies of the chain; also called full-length monomeric human α-catenin; full-length dimeric human α-catenin; source: E. coli BL21(DE3), purified similar to HMP1/α-catenin; monomer and dimer SEC peaks pooled separately and run again on Superdex S200; not shown: GST, …
B1: the “stoichiometry N” value in data set [1] worked out at 2.

B2: HMP1/α-catenin F-actin binding domain (FABD, residues 677-927) (domain or fragment, C. elegans, UniProt P90947 677-927, looked up)
chain: NLMRRLPEEEKKKIQAQIDIFKVTQTRFEREVAKWDETGNDIISLANNMCKIMMSMTEFTRGCGPLKTTMDVIRAAQEISLNGSKLNALARQIGEESADSQTKKDLLAYLSQITLYCQQLNICSKVKADVTQVGNELVVSALDSAMSLIQTARNLLTAVVQTVKAAYIASTKFRRPNANSVRVEWRMAPPKKQPLIRPQKNNAIIRRASERRPLQPAKVLAEFTRNEIETGRDSDDEELDRRHQQRINGRL
notes: Cloned into pGEX-6P-1 with a PreScission site by DNA Custom Cloning; also called HMP1/α-catenin FABD; FABD of HMP1/α-catenin; source: E. coli BL21(DE3), purified as described for full-length HMP1/α-catenin; not shown: GST, N-terminal, cleaved
With B2, in data set [2], the binding result was “binds”.

The values above are taken from publication PMC9860117, “The nematode α-catenin ortholog, HMP1, has an extended α-helix when bound to actin filaments” (The Journal of Biological Chemistry, 2022).
